Laboratory results as given in patent publication US20190127470A1 (TRUSTEES OF DARTMOUTH COLLEGE, published 2019).

Biological target: T1, g2.5-11 scFv-Fc (UniProt P01857-1 1-330 = IgG part)
T1 construct: domain: heavy chain constant regions (CH1-CH3); also called g2.5-3 (identical at the amino acid level); Fg2.5-3
Experiment: Octet BLI, scFv-Fc loaded on anti-human CH1 tips, 0-500 nM B7H6-Ig in solution, global fit
Description: Anti-Human CH1 tips were activated with 0.05 mg/mL a2.5-11 scFv-Fc protein for 600 seconds to ensure saturation of tips with […]. Tips were then transferred to PBS+0.1% Tween (PBS-T)-containing wells for baseline measurements of scFv-Fc-loaded tips before transferring to antigen-containing wells ranging from 0-500 nM B7H6-Ig. Samples were double-referenced using non-activated tips and PBS-T only containing wells. The Octet Analysis software was used for global kinetic fits which determine a single KD measurement for each antigen using association and dissociation curves for all concentrations tested.

T1 sequence (P01857 other isoform, or with tags, fused parts or gaps limits assumed): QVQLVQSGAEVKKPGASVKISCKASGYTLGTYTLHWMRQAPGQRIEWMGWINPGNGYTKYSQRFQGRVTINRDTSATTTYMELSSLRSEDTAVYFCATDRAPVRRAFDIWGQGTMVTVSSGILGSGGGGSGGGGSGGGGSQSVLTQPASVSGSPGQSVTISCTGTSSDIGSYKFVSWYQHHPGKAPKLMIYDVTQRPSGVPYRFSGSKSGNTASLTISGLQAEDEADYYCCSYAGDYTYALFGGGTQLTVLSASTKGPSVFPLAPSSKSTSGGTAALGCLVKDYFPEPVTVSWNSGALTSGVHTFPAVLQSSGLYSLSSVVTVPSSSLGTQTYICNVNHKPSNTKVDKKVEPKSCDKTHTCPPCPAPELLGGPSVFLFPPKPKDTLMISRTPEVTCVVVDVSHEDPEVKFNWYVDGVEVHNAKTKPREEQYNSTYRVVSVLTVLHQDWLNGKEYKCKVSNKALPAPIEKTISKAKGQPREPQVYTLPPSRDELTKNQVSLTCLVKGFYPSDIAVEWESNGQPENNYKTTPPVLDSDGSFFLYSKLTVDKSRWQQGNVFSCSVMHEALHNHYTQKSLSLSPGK

B1: B7H6-Ig, a fusion protein containing the extracellular portion of B7H6 and the Fc portion of a Mouse IgG2a (Fc fusion, UniProt Q68D85 25-262, looked up)
chain: DLKVEMMAGGTQITPLNDNVTIFCNIFYSQPLNITSMGITWFWKSLTFDKEVKVFEFFGDHQEAFRPGAIVSPWRLKSGDASLRLPGIQLEEAGEYRCEVVVTPLKAQGTVQLEVVASPASRLLLDQVGMKENEDKYMCESSGFYPEAINITWEKQTQKFPHPIEISEDVITGPTIKNMDGTFNVTSCLKLNSSQEDPGTVYQCVVRHASLHTPLRSNFTLTAARHSLSETEKTDNFS
notes: extracellular domain; also called soluble B7H6-Ig antigen; not shown: Fc portion of a Mouse IgG2a
Question: Which results are given for B1?
Answer: Kd: 25.7 nM; koff: 0.00035 s⁻¹; kon: 13700 M⁻¹ s⁻¹
